Data from paper PMC6089974.
Positions count from the first letter of the chain named. Numbers in names are those of the source.

Key:
Assay in all cases: purified protein
[1] = substrate: O=[N+]([O-])c1ccc(O[C@H]2C=C(CO)[C@H](O)[C@H](O)[C@H]2F)c([N+](=O)[O-])c1; details: 50 mM HEPES pH 7.4, 37 °C, covalent intermediate slowly hydrolysed, apparent binding constant
[2] = substrate: O=[N+]([O-])c1ccc(O[C@H]2C=C(CO)[C@H](O)[C@H](O)[C@H]2O)c([N+](=O)[O-])c1; details: 50 mM HEPES pH 7.4, 37 °C, covalent intermediate slowly hydrolysed, 3b equilibrates in D2O with its C-2 aryloxy isomer (~2:1)
[3] = substrate: O=[N+]([O-])c1ccc(O[C@H]2O[C@H](CO)[C@H](O)[C@H](O)[C@H]2F)c([N+](=O)[O-])c1; details: 50 mM HEPES pH 7.4, 37 °C, printed Km does not agree with printed kcat and kcat/Km (possible misprint)
[4] = substrate: O=[N+]([O-])c1ccc(O[C@H]2O[C@H](CO)[C@H](O)[C@H](O)[C@H]2O)cc1; details: 50 mM HEPES pH 7.4, 37 °C, acid/base mutant

B1: TmGalA (Thermotoga maritima MSB8) (protein)
chain: MEIFGKTFREGRFVLKEKNFTVEFAVEKIHLGWKISGRVKGSPGRLEVLRTKAPEKVLVNNWQSWGPCRVVDAFSFKPPEIDPNWRYTASVVPDVLERNLQSDYFVAEEGKVYGFLSSKIAHPFFAVEDGELVAYLEYFDVEFDDFVPLEPLVVLEDPNTPLLLEKYAELVGMENNARVPKHTPTGWCSWYHYFLDLTWEETLKNLKLAKNFPFEVFQIDDAYEKDIGDWLVTRGDFPSVEEMAKVIAENGFIPGIWTAPFSVSETSDVFNEHPDWVVKENGEPKMAYRNWNKKIYALDLSKDEVLNWLFDLFSSLRKMGYRYFKIDFLFAGAVPGERKKNITPIQAFRKGIETIRKAVGEDSFILGCGSPLLPAVGCVDGMRIGPDTAPFWGEHIEDNGAPAARWALRNAITRYFMHDRFWLNDPDCLILREEKTDLTQKEKELYSYTCGVLDNMIIESDDLSLVRDHGKKVLKETLELLGGRPRVQNIMSEDLRYEIVSSGTLSGNVKIVVDLNSREYHLEKEGKSSLKKRVVKREDGRNFYFYEEGERE
**Q.** With B1 as the protein, how does the Km [1] read?
**A.** 4.1 ± 0.9 µM

**Q.** And the kcat [1]?
**A.** 0.000229 ± 1.1e-05 s⁻¹

**Q.** And the kcat/Km [1]?
**A.** 56 ± 13 M⁻¹ s⁻¹

**Q.** What about the Km [2] of the same protein?
**A.** 1.68 ± 0.14 µM

**Q.** And the Km [3]?
**A.** 253 ± 8 µM

B2: TmGalA (Thermotoga maritima MSB8; D387A) (protein)
chain: B1 chain with D387A
**Q.** B2 was tested. Which Km [4] did it give?
**A.** 184 ± 7 µM

**Q.** What about the kcat [4] of the same protein?
**A.** 0.036 s⁻¹

**Q.** What about the kcat/Km [4] of the same protein?
**A.** 196 M⁻¹ s⁻¹
